Publication PMC7382241, “Genomic discovery of an evolutionarily programmed modality for small-molecule targeting of an intractable protein surface” (Proceedings of the National Academy of Sciences of the …, 2020)

Target: the molecule itself
Assay: crystal structure; CEP250_(11.4) with three-molar excess of FKBP12 and nine-molar excess of WDB002, ternary complex isolated by SEC; crystals in 0.1 M Hepes 7.0, 0.2 M sodium malonate, 21% PEG 3350

B1: CEP250_(11.4) (residues 2,134 to 2,231) (domain or fragment, human, UniProt Q9BV73 2134-2231, looked up)
chain: MEEQSLKLDSLEPRLQRELERLQAALRQTEAREIEWREKAQDLALSLAQTKASVSSLQEVAMFLQASVLERDSEQQRLQDELELTRRALEKERLHSPG
notes: human CEP250 residues 2,134 to 2,231; forms a homodimeric coiled coil in the crystal; tags not specified in the main text; Tags are in SI Materials and Methods; also called 11.4 kDa degradation product of CEP250; source: E. coli BL21(DE3)pLysS
- stoichiometry N: 2
